Positions count from the first letter of the chain named. Blank lines part the entries; values can stand above or below the binder they belong to.
Biological target: T1, 인간 FcεRI의 α 서브유니트(FcεRIα)의 가용성 단편 (human, UniProt P12319 26-205, limits assumed)
T1 construct: domain: 가용성 단편 (soluble fragment); also called soluble sFcεRI; sFcεRI
T1 sequence (looked up): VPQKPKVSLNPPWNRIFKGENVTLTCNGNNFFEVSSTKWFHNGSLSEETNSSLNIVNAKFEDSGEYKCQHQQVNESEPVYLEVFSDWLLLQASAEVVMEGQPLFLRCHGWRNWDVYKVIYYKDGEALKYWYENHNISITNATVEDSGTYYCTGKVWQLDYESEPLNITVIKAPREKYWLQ
Assay: phage ELISA, scFv on phage, selected after panning on coated FcεRI

B1: NPB 302 scFv (scFv, V domains shown)
VH: EVQLVESGAEVKKPGSSVKVSCKASGGTFSSYAISWVRQAPGQGLEWMGRIIPILGIANYAQKFQGRVTITADKSTSTAYMELSSLRSEDTAVYYCARVNPFGYYYAMDVWGQGTTVTVSS
VL: QSVLTQPPSASGTPGQRVTISCSGSTSNIGGNSVNWYQQLPGAAPKLLIYANIQRPSGVPDRFSGSKSGTSASLAISGLQSEDEADYYCASWDDSRNGYVFGTGTKVTVL
binding result: binds

B2: NPB 313 scFv (scFv, V domains shown)
VH: B1 VH with E6Q
VL: DIQMTQSPSSVSASVGDRVTIPCRASQGISSWLAWYQQKPGKAPKLLIYAASNLQSGVPSRFSGSGSGTDFTLTISSLQPEDSATYYCQQTDSFPLTFGGGTKVEIK
binding result: binds

B3: NPB 314 scFv (scFv, V domains shown)
VH: EVQLVQSGAEVKKPGESLKISCKGSGYTFTKYWIGWVRQMPGKGLEWMGIIYPGDSDTTYSPSFQGQVTISADKSISTAYLQWSSLKASDTAMYYCAKDNPFTGSFDIWGQGTMVTVSS
VL: QSALTQPASMSGFPGQSITISCTGTRDDVGNYDLVSWYQQQPAKAPKLLIYEDNKRPSGVSSRFSGSKSGSTASLTISGLQTEDEADYYCCSYAGDYTYVFGTGTKVTVL
binding result: binds

B4: NPB 307 scFv (scFv, V domains shown)
VH: B3 VH with P14S, S25F, T28R, K31S, T59R, Q111L
VL: QSALTQPRSVSGSPGQSVTISCTGTSNDVGGYTYVSWYQQHPGKAPKLMIYDVSKRPSGVPDRFSGSKSGNTASLTISGLQAEDEADYYCSSYAGSYTWVFGGGTKLTVL
binding result: binds

B10: NPB 304 scFv (scFv, V domains shown)
VH: EVQLLESGGGLVQPGGSLRLSCAASGLAFSDYYMSWVRLAPGKGLEWVSVISPGSGSKYYADSVKGRFTISRDNSKNTLYLQMNSLRAEDTAVYYCARYVGGMMMKRDFYYAMDVWGQGTLVTVSS
VL: QSVLTQPPSASGTPGQRVTISCSGSSSNIGSNAVNWYQQLPGTAPKLLIYYDSHRPSEVPDRFSGSKSGTSASLAISGLRSEDEADYYCGTWDSSLSGYVFGGGTKLTVL
binding result: binds

Second part, the binder after the results:

binding result: binds
B5: NPB 308 scFv (scFv, V domains shown)
VH: B3 VH
VL: B4 VL

binding result: binds
B6: NPB 312 scFv (scFv, V domains shown)
VH: EVQLVQSGAEVKKPGESLKISCEGSGYRFSSYWIAWVRQKPGKGLEWMGIIYPYDSDTKYGPSFGGQVTISADKSINTAYLEWSSLKASDTAMYYCARLALIRGSIIFDYWGLGTLVTVSS
VL: QSALTQPRSVSGSPGQSVTISCTGSRGDVGGYDFVSWYRQYPGEAPQLIIYDVSGRPSGVPDRFSGSKSGNTASLTISGLQPEDEADYYCSSYAGSEIYVFGTGTKVTVL

binding result: binds
B7: NPB 309 scFv (scFv, V domains shown)
VH: B6 VH
VL: QSVLTQPSSVSGAPGQRVTISCTGSSSNIGADYDVHWYQLVSGAAPKLLIYGYTNRPSGVPDRFSGSKSGTSASLVIAGLQAEDEADYYCQSYDSSLSEVVFGGGTKLTVL

binding result: binds
B8: NPB 306 scFv (scFv, V domains shown)
VH: B6 VH
VL: QSVLTQPSSVSGAPGQRVTISCTGSSSNIGAGYDVHWYQHLPGTAPKLLIYGINIRPSGVPDRFSGSKSDTSASLAITALQAEDEADYYCQSYDSSLRSVVFGGGTKLTVL

binding result: binds
B9: NPB 303 scFv (scFv, V domains shown)
VH: EVQLVQSGAEVKKSGESLKISCKGFGYTFTRNWIGWVRQMPGKGLEWMGIIYPGDSDTRYSPSFQGQVTISADKSISTAYLQWSSLKASDTAMYYCARDVGNGDYGLDVWGQGTTVTVSS
VL: QSALTQPASVSGSPGQSITISCTGTSSDIGGYDFVSWYQQHPGKAPKLIIYDVTRRPSEISNRFSASKSGNTASLTISGLQAEDEADYYCSSYTSSSTPYVFGTGTKVTVL

binding result: binds
B11: NPB 305 scFv (scFv, V domains shown)
VH: B10 VH
VL: QSVLTQPPSASGTPGQRVTISCTGSSSNIGNNDVSWYQQLPGTAPKLLIYSNNQRPSGVPDRFSGSKSGTSASLAISGLRSGDEADYYCGTWDYSLSGYVFGGGTKLTVL
